Measurements: publication PMC6910952 (Nature Communications, 2019)
No end group written: not given here.

T1: His6-yNpl4^113–580 M357A (Saccharomyces cerevisiae, UniProt P33755 113-580, M357A)
T1 construct: also called yNpl4 M357A; source: E. coli Rosetta (DE3), purified (Ni-NTA, Resource Q); not shown: His6, N-terminal, kept
T1 sequence (looked up): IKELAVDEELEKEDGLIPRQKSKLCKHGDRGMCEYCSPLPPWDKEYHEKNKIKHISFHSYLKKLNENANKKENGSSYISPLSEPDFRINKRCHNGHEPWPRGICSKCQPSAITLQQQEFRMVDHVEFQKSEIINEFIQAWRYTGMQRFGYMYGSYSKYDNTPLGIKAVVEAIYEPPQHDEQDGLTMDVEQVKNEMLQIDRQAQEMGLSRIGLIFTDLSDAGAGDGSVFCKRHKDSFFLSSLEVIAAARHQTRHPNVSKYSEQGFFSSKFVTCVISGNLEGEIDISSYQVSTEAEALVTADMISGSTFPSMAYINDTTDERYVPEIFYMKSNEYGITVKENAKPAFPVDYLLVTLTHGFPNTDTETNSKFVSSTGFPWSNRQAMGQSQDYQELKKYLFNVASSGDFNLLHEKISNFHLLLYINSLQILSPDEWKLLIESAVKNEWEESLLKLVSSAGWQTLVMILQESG

T2: His6-yNpl4^113–580 L296A (Saccharomyces cerevisiae, UniProt P33755 113-580, L296A)
T2 construct: also called yNpl4 L296A; source: E. coli Rosetta (DE3), purified (Ni-NTA, Resource Q); not shown: His6, N-terminal, kept
T2 sequence (looked up): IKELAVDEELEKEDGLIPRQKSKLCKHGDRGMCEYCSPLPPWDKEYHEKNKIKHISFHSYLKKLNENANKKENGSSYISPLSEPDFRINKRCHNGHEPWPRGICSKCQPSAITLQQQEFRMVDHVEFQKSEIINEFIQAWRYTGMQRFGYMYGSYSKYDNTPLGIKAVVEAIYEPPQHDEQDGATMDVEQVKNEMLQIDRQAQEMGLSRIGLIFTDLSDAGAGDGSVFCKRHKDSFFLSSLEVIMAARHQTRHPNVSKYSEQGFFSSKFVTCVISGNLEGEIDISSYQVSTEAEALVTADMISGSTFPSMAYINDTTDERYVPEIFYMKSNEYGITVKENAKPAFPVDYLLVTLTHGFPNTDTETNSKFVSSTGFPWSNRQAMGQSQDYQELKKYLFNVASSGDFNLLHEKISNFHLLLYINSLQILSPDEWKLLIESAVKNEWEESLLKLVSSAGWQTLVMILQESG

T3: His6-yNpl4^113–580 R364A (Saccharomyces cerevisiae, UniProt P33755 113-580, R364A)
T3 construct: also called yNpl4 R364A; source: E. coli Rosetta (DE3), purified (Ni-NTA, Resource Q); not shown: His6, N-terminal, kept
T3 sequence (looked up): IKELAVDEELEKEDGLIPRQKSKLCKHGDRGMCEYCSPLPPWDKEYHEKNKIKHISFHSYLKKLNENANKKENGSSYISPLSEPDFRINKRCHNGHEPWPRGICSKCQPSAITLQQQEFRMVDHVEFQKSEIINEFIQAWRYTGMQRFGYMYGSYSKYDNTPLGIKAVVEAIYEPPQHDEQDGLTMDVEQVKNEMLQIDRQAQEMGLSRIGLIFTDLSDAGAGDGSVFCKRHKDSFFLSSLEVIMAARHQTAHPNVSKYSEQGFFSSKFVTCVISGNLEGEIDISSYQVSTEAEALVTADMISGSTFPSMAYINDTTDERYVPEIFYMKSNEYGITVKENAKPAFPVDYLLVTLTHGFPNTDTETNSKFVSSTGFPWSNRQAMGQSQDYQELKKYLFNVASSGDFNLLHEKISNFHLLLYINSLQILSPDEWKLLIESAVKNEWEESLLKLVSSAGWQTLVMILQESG

T4: GST-yNpl4 (full length, wild type) (Saccharomyces cerevisiae, UniProt P33755 1-580)
T4 construct: Npl4 of Saccharomyces cerevisiae (yNpl4), full length; codon-optimized synthetic cDNA; also called GST-Npl4; source: E. coli Rosetta (DE3) (pGEX-6P1), purified (Glutathione Sepharose FF, Resource Q); not shown: GST, N-terminal, kept
T4 sequence (looked up): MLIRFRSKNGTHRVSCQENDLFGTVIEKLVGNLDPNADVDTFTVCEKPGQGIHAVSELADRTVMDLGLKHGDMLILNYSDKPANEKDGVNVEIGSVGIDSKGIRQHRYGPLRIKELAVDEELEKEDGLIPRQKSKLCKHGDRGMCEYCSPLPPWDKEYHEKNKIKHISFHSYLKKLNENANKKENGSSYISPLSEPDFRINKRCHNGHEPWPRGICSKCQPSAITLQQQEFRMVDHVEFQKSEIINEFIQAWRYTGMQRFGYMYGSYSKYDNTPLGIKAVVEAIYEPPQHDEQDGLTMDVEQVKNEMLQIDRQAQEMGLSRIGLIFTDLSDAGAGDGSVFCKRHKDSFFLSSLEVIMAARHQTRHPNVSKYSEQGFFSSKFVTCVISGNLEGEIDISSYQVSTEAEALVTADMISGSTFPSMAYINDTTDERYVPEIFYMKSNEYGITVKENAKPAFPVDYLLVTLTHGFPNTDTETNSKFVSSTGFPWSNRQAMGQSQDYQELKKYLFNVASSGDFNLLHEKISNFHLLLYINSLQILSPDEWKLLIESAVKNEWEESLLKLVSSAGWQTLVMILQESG


What was measured:
Conditions in all cases: both partners purified
[1] = biological target: T1, His6-yNpl4^113–580 M357A; experiment: fluorescence polarisation; fluorescence anisotropy; 1 nM FlAsH-labeled His6-SUMO-yUfd1 peptide, His6-yNpl4^113–580 in two-fold dilution series; 25 °C; 50 mM Tris-HCl pH 8.0, 100 mM NaCl, 5 mM β-mercaptoethanol, 0.1 g/L BSA
[2] = biological target: T2, His6-yNpl4^113–580 L296A; experiment: as above
[3] = biological target: T3, His6-yNpl4^113–580 R364A; experiment: as above
[4] = biological target: T4, GST-yNpl4 (full length, wild type); experiment: pull-down; GST-yNpl4 (0.5 μM) on glutathione beads with 0.5 μM yUfd1 alone; full-length proteins; SDS-PAGE, Coomassie (Fig. 3e)

Kd [1] [nM]	Kd [2] [nM]	Kd [3] [nM]	binding result [4]	Binder
164	7020	314	–	{His6-SUMO}-EPAKLDLPEGQLFFGFPMGWCCPGCC (peptide, UniProt P53044 288-305, looked up, cysteine pairing not given here; also: FlAsH label bound to CCPGCC motif, the assay methods print 280-305; also called yUfd1-FlAsH; yUfd1 WT; source: E. coli Rosetta (DE3) (pCold-SUMO), purified (Ni-NTA, Resource Q), labeled with FlAsH-EDT2; not shown: His6, N-terminal, kept; SUMO, N-terminal, kept) [FlAsH-labeled His6-SUMO-yUfd1^288–305-GWCCPGCC]
–	–	–	binds	yUfd1 (full length, untagged) (natural protein, Saccharomyces cerevisiae, UniProt P53044 1-361, looked up, Ufd1 of Saccharomyces cerevisiae (yUfd1), full length; codon-optimized synthetic cDNA; removal of GST by HRV3C is surmised; also called untagged Ufd1; source: E. coli Rosetta (DE3) (pGEX-6P1), purified) MFSGFSSFGGGNGFVNMPQTFEEFFRCYPIAMMNDRIRKDDANFGGKIFLPPSALSKLSMLNIRYPMLFKLTANETGRVTHGGVLEFIAEEGRVYLPQWMMETLGIQPGSLLQISSTDVPLGQFVKLEPQSVDFLDISDPKAVLENVLRNFSTLTVDDVIEISYNGKTFKIKILEVKPESSSKSICVIETDLVTDFAPPVGYVEPDYKALKAQQDKEKKNSFGKGQVLDPSVLGQGSMSTRIDYAGIANSSRNKLSKFVGQGQNISGKAPKAEPKQDIKDMKITFDGEPAKLDLPEGQLFFGFPMVLPKEDEESAAGSKSSEQNFQGQGISLRKSNKRKTKSDHDSSKSKAPKSPEVIEID
